In patent US6521594 (LA JOLLA CANCER RESEARCH FOUNDATION, dated 2003):
Starred links: 1 amine or outer side, 2 acyl side, 3 side chain; linkers in the order of their positions; H or OH if unused. Positions of bridges follow the written chain, without caps; N, C: chain ends. Non-standard residues stand in square brackets, D forms with d. No end group written: not given here. Cys(β,β-pentamethylene) = O=C([C@@H](N[*:1])C1(S[*:3])CCCCC1)[*:2]; Phe(4-I) = N[C@@H](Cc1ccc(I)cc1)C(=O)O; Cha = N[C@@H](CC1CCCCC1)C(=O)O; Pen = CC(C)(S)[C@H](N)C(=O)O; Orn = NCCC[C@H](N)C(=O)O

Tests used:
[1] = biological target: Platelet glycoprotein IIb/IIIa (human, UniProt P08514 32-1039; P05106 27-788); assay: cell-based or functional assay
Vitronectin receptor = biological target: T1, Vitronectin receptor (human, UniProt P06756 31-1048; P05106 27-788); assay: competition, ELISA or liposome assay, vitronectin coated
T1 construct: mature; also called Vn-R; VnR
T1 sequence (P06756 31-1048, chain 1 of 2): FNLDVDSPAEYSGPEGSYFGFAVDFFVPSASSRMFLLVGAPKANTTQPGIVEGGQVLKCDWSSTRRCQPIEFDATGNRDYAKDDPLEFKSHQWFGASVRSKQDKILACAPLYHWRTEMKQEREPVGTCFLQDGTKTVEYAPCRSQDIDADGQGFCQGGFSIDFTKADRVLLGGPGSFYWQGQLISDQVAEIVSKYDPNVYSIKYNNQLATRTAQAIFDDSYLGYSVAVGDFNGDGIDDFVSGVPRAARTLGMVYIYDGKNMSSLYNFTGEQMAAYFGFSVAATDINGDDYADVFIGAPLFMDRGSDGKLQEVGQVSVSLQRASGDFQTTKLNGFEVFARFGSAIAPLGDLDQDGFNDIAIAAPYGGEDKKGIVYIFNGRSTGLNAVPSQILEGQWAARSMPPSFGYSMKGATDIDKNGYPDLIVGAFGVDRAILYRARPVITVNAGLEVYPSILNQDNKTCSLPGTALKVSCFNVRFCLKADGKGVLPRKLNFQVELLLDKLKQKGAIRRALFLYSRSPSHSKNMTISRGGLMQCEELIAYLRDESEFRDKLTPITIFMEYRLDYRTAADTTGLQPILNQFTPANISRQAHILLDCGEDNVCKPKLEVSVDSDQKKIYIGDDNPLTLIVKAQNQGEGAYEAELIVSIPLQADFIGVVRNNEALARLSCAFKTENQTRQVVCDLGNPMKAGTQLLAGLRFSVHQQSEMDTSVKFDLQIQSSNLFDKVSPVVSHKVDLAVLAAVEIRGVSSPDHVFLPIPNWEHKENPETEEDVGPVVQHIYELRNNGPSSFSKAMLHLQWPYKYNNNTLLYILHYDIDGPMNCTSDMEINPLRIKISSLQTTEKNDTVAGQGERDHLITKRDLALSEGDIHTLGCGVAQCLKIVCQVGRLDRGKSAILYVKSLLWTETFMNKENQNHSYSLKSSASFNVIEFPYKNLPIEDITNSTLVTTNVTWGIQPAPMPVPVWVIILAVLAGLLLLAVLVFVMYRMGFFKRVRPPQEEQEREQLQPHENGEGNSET
T1 sequence (P05106 27-788, chain 2 of 2): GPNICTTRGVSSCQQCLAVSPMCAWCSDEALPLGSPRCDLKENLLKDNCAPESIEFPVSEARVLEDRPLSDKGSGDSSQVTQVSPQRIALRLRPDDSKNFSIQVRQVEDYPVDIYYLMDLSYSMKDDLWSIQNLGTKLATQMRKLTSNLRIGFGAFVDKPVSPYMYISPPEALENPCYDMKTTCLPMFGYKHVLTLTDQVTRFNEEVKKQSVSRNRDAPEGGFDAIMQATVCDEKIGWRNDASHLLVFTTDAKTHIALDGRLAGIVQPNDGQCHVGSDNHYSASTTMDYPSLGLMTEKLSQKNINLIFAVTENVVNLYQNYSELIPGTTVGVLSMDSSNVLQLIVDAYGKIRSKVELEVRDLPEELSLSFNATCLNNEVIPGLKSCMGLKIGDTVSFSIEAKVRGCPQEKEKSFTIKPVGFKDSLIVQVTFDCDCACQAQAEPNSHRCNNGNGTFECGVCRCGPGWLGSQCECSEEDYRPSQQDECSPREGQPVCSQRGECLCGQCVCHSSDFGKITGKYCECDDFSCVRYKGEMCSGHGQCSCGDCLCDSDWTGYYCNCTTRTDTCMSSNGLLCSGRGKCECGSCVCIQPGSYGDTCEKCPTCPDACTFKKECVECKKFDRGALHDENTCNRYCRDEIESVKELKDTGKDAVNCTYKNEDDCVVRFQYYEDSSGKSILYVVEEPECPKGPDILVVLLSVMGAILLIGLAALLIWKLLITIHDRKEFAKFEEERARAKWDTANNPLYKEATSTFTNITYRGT

Row | Binder | IC50, ADP-Stimulated Aggregation [1] [µM] | IC50, Thrombin Stimulated Aggregation [1] [µM] | IC50 (Vitronectin receptor) [µM]
1 | R[Pen]GHRGDTRCR (disulfide 2-10) [R(Pen)GHRGDTRCR] | 8.8 | – | –
2 | G[Pen]GHRGDTRCA (disulfide 2-10) [G(Pen)GHRGDTRCA] | 11.3 | 17 | –
3 | L[Pen]GHRGDLRCA (disulfide 2-10) [L(Pen)GHRGDLRCA] | 10.5 | – | –
4 | R[Pen]GRGDSRCA (disulfide 2-9) [R(Pen)GRGDSRCA] | 12 | 12 | –
5 | XGHRGDLRXA (not fully specified; t-but-am-Pmp at 1; Pen at 9) [(t-but-am-Pmp)GHRGDLR(Pen)A] | 89 | – | –
6 | R[Cys(β,β-pentamethylene)]GHRGD[Phe(4-I)]KCR (disulfide 2-10) [R(Pmc)GHRGD(p-iodo-Phe)KCR] | – | – | 8
7 | YRGDSPDG | – | – | 0.08
8 | R[Pen]GRGDLRCA (disulfide 2-9) [R(Pen)GRGDLRCA] | 16 | 13 | –
9 | R[Orn]GHRGDLRDR [R(orn)GHRGDLRDR] | < 200 | – | –
10 | [t‑butylAmino‑Pmp]GHRGDLRCA (disulfide 1-9; also: place of tert-butyl and chirality not given here) [(t-butylAmino-Pmp) GHRGDLRCA] | 130 | – | –
11 | G[Pen]GRGDRPCA (disulfide 2-9) [G(Pen)GRGDRPCA] | 22.3 | – | –
12 | G[Pen]LRGDSPCA (disulfide 2-9) [G(Pen)LRGDSPCA] | 415 | 308 | –
13 | R[Cys(β,β-pentamethylene)]RGD[Cha]CR (disulfide 2-7) [R(am-Pmp)RGD(Cha)CR] | < 200 | – | –
14 | G[Pen]YRGDSPCA (disulfide 2-9) [G(Pen)YRGDSPCA] | 47 | – | –
15 | R[Cys(β,β-pentamethylene)]GHRGDFRCR (disulfide 2-10 (inferred)) [R(Pmc)GHRGDFRCR] | 0.62 | – | –
16 | R[Cys(β,β-pentamethylene)]GHRGDYRCR (disulfide 2-10) [R(Pmc)GHRGDYRCR] | 1 | – | –
17 | G[Pen]GRGDTPCA (disulfide 2-9) [G(Pen)GRGDTPCA] | 22.3 | – | –
18 | G[Pen]LRGDTPCA (disulfide 2-9) [G(Pen)LRGDTPCA] | 86 | – | –
19 | G[Pen]LRGDSRCA (disulfide 2-9) [G(Pen)LRGDSRCA] | 41 | 49 | –
20 | R[Pen]GRGDWPCR (disulfide 2-9) [R(Pen)GRGDWPCR] | – | 0.53 | –
